Test results as given in US20190381150.

B1: EndoBI-2 (endo-β-N-acetylglucosaminidase from B. infantis SC142), recombinant, signal peptide and transmembrane domains omitted (protein)
chain: VANAQEGDSPVAASQEGNGNKHFMVYYRAWRDVTMKGVNTDLPDDNWISMYDIPYGIDVVNVFSYVPSGQEAAAQPFYDKLKSDYAPYLHARGVKLVRGLDYSGVMVDGFKTWIAQQGKNVDSATESDYDAYADHVIETYMTSVGLDGLDIDMETFPDAAQVAISDQVITALAKRIGPKSDNPEGTMFLYDTNGSYTAPFKNVSDCFDYVAYQQYGSDSNRTAKAAATYEQFIDSTKFVPGLTFPEEGDMNNRWNDATEPYLDSHFYDVASYSYDHNLGGMFVYALDRDGRTYSDDDLAHIKPSNLIWTKTAIAQSQGMSLENAKQAANHFLDRMSYTKDVPAETRQTVAAATNLYEVNKAVLGADWNDGYSNTYDPTLELSLASIDTTALTGAIAKADALLADGATDTDVRTTLTTARNAA
B2: EndoBB (GH85 endo-β-N-acetylglucosaminidase, BLD_0197 from B. longum DJO10A), recombinant, signal peptide and transmembrane domain omitted (protein)
chain: CSGGTSATKYTITPENENEELVLGNRPEASYWFPEDLLKWNADKDPNLAYNVSTVPLAKRVDKADLKPVNDTQNTDTKVMAISIMNSSTSGNAPHGLNTANANTFSYWQYVDELVYWGGSSGEGIIVPPSPDVTDMGHTNGVPVLGTVFFPQNVSGGKVEWLDQTLAQKSDGSFPVADKLIEVATTYGFDGWFINQETEGENETSLGADYATKMQAFIAYLKKQAPDLRVVYYDSMTKDGSIDWQNALTDENSMYMTDGDHPIADEMFLNFWWTEDKLAGDDLLAASATKAKELGIDPYSLYAGIDVQADGYDTPVKWNLFAGKDGKTHTSLGLYCPSWAYWSAGNPTTFRKNESRLWVNDEGNPSVSTPYEDDEKWTGVSNYVAEQSAVTSLPFVTNFNNGSGYSFFREGKQISKMDWNNRSVSDIQPTYRWIVADEGGNKTKADYSDADAWYGGSSLKFSGKVAKDGKTMVKLYSASVKTGAKPTLSIAAKANVDTDLKAVLTFADGSVETVNGKKKVGNDWGVIDYDIAKLSNKTLTGIDFTYQSSEDKTGYELLLGNITLKDGSEETELGKVTEVKVDDSEFDDDALYAGARISWKTDGKAPAYEIYQINEDKSRSFLGVSNVENFYANALTRVGETNNTTFEIVPVDRYGTQGTSAKADMDWPDNSKPKAGATASRTLLNVGDEVTFTSASSKNTAEVAWSLPGSSKEHATGKSVTVTYDKEGVYDVEITAKNKSGEATATLKGQIVVSADVMDLVLLSQGAQVSADGFTNGNEKPEFAVDGDVKTKWCVTGPAPHELVVDLGAPKTVSQVDISHAQAGGEDASMNTQEYAIEVSEDGTEYTQVALVKGNTEGATSNAFAPVNARYVKLVVNKPTQGSDTAARIYEMQVRGADGAIL
B3: EndoBI-1 (endo-β-N-acetylglucosaminidase from B. infantis ATCC 15697, Blon_2468), recombinant, signal peptide and transmembrane domains omitted (protein)
chain: NADAVSPTQETIQSTGRHFMVYYRAWRDVTMKGVNTDLPDDNWISMYDIPYGVDVVNIFSYVPSGQEEQAQPFYDKLKSDYAPYLHSRGIKLVRGIDYTGVAVNGFRTFMKEQNKTESEATEADYDAYAKQVIDKYMISVGLDGLDIDMEAHPNDADVKISDNVIRALSKHIGPKSAKPDTTMFLYDTNGSYLNPFKNVAECFDYVAYQQYGSSSDRTARAAADYQPYIGNEFVPGLTFPEEGDMNNRWYDATEPYEESHFYQVASYVREHNLGGMFVYALDRDGRNYDEDLRRIVPSNLLWTKTAIAESEGMALDTAKTAANHYLDRMSLRQVIDDNAASADKARDMVGKAANLYETNKAVLGGDYGEGFSNTYDPTLEAGLLGIDISVLQQQIDKSSEIIGADTAESDAKTALRMARDAAIDGLTGKIYTADQVSAWSQALKAALDATVPVPTPDSTDQNGNRDKVTNHKVQGQPKQLSAT

Assays:
[1] = molecular target: Human lactoferrin (lactoferrin from human milk, Sigma), P02788
Sequence of Human lactoferrin (lactoferrin from human milk, Sigma), P02788 (P02788 20-710): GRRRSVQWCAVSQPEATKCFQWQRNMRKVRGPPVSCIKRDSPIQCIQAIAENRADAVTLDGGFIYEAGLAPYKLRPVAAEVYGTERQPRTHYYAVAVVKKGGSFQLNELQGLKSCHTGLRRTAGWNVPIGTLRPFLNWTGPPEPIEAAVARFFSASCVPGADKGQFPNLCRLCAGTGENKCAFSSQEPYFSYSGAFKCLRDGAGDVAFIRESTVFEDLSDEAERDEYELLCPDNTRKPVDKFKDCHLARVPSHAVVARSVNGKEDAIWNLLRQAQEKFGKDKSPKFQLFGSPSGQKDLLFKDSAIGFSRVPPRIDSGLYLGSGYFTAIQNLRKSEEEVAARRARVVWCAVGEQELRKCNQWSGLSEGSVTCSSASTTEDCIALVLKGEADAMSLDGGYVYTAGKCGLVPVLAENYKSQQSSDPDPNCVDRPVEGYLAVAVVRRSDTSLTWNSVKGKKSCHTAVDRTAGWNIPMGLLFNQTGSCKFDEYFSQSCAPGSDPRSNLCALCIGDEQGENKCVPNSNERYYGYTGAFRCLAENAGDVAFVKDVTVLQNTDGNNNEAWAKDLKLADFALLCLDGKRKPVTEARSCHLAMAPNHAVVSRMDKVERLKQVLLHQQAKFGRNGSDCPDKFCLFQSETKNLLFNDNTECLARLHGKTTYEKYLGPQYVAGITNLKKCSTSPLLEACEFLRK

[2] = molecular target: Bovine lactoferrin (lactoferrin from bovine milk, Sigma), P24627
Sequence of Bovine lactoferrin (lactoferrin from bovine milk, Sigma), P24627 (P24627 20-708): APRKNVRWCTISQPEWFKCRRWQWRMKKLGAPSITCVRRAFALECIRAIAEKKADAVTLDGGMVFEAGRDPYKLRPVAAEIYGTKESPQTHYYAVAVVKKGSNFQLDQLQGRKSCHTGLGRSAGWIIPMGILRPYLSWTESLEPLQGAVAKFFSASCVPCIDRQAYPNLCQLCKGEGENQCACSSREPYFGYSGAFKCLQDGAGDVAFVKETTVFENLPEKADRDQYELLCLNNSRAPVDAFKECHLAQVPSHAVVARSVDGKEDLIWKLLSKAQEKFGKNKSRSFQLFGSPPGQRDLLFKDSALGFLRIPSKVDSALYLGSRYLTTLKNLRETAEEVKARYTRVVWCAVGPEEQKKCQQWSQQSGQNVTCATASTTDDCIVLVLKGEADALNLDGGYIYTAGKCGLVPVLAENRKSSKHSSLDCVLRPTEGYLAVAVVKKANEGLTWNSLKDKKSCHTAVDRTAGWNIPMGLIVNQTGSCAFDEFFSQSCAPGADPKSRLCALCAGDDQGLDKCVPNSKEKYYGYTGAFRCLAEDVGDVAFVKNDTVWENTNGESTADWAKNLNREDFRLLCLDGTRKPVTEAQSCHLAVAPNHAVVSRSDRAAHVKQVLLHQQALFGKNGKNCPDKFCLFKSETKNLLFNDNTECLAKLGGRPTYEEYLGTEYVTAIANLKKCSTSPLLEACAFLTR

[3] = molecular target: T1, Bovine ribonuclease B (ribonuclease B from bovine pancreas, Sigma-Aldrich), P61823
T1 chain: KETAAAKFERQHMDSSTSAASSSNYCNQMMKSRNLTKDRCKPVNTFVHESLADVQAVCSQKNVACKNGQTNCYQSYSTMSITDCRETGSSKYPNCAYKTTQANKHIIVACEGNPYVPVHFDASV

bovine fetuin, P12763 = molecular target: T2, bovine fetuin, P12763
T2 chain: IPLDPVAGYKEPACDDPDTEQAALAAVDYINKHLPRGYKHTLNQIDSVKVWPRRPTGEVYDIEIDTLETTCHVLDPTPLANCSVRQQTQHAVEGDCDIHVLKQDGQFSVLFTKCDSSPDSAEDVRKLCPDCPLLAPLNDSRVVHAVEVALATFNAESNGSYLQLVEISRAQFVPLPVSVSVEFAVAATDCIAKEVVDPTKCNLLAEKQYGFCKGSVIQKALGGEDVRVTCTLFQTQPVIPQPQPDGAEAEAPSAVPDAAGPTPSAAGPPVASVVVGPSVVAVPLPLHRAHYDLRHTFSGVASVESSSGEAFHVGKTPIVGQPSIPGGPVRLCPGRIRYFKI

Row | Protein | deglycosylation, SDS-PAGE after overnight incubation [1] | deglycosylation, change in MW on SDS-PAGE after overnight incubation [2] | deglycosylation (cleavage of high mannose glycans) [1] | deglycosylation (cleavage of high mannose glycans) [3] | deglycosylation (cleavage of high mannose glycans) [2] | release of N-glycans (bovine fetuin, P12763) | shift in molecular weight on SDS-PAGE of human milk after overnight incubation [1]
1 | B1 | EndoBI-1 and EndoBI-2 cleaved hLF | all of them were able to cleave bLF, as observed by discrete changes in MW on SDS-PAGE gels |  |  |  |  | 
2 | B2 |  | all of them were able to cleave bLF, as observed by discrete changes in MW on SDS-PAGE gels | cleaving RNAseB and bLF, but not hLF | cleaving RNAseB and bLF, but not hLF | cleaving RNAseB and bLF, but not hLF |  | 
3 | B3 | EndoBI-1 and EndoBI-2 cleaved hLF | all of them were able to cleave bLF, as observed by discrete changes in MW on SDS-PAGE gels |  |  |  | releasing N-glycans from human IgA, IgG, RNase B and bovine fetuin | produced a shift in the molecular weight of primarily lactoferrin
